Experimental findings from patent publication US5989875A, “Method of process for producing L-lysine by fermentation” (priority 1995, dated 1999) are described below.

For data set [1], the system named is AKIII. In words: Enzyme activity of AKIII and inhibition by L-lysine (cell-free extract). The class given is biochemical, E. coli. The source says: No. 24, No. 43, No. 48, No. 60, No. 80, No. 117, No. 126, No. 149, No. 150, No. 156, No. 158, No. 167, No. 169 and No. 172 were selected as representative strains of the aforementioned 14 groups. Mutant plasmids derived from pLYSC1 were recovered from each of them, and designated as pLYSC1*24, pLYSC1*43, pLYSC1*48, pLYSC1*60, pLYSC1*80, pLYSC1*117, pLYSC1*126, pLYSC1*149, pLYSC1*150, pLYSC1*156, pLYSC1*158, pLYSC1*167, pLYSC1*169 and pLYSC1*172, respectively. An AK completely deficient strain GT3 was transformed with them and the wild type pLYSC1. A cell-free extract was prepared from each of transformed strains, and the enzyme activity of AKIII was measured.
The cell-free extract (crude enzyme solution) was prepared as follows. A transformed strain was cultivated in a 2 x TY medium, and collected at an OD660 of about 0.8. Cells were washed with 0.02 M KH2 PO4 (pH 6.75)-0.03 M β-mercaptoethanol under a condition of 0° C., and the cells were disrupted by sonication (0° C., 100 W, 30 minutes×4). A disrupted cell solution was centrifuged at 33 krpm for 1 hour under a condition of 0° C. to obtain a supernatant to which ammonium sulfate was added to give 80% saturation. After centrifugation, a pellet was dissolved in 0.02 M KH2 PO4 (pH 6.75)-0.03 M β-mercaptoethanol, and stored at 0° C. overnight.
The enzyme activity of AKIII was measured in accordance with a method of Stadtman et al. (Stadtman, E. R., Cohen, G. N., LeBras, G., and Robichon-Szulmajster, H., J. Biol. Chem., 236, 2033 (1961)). Namely, a reaction solution having the following composition was incubated at 27° C. for 45 minutes, and an FeCl3 solution (2.8 N HCl 0.4 ml+12% TCA 0.4 ml+5% FeCl3 ·6H2 O/0.1 N HCl 0.7 ml) was added thereto to develop a color, and it was centrifuged followed by measurement of absorbance of a supernatant at 540 nm. The activity was indicated by an amount of hydroxamic acid generated per minute (1 U=1 μmol/min). The molar absorption coefficient was 600. Potassium aspartate was removed from the reaction solution to be used as a blank.
In measurement of the enzyme activity of AK, various concentrations of L-lysine were added to the enzyme reaction solution and the degree of inhibition by L-lysine was examined.
(§1) On the contrary, although the mutant AKIII's obtained this time had various degrees of desensitization, inhibition by L-lysine was desensitized in all of 14 species. […] The specific activity based on total protein, which might be affected by growth situations of cell and preparation of samples, was equal to or more than that of the wild type in almost all cases, and there was little problem of decrease in activity due to the introduction of mutation (Table 3). According to this fact, it was expected that an active center of AKIII was independent from a regulatory site by L-lysine with each other. In Table 3, the inhibition desensitization degree (%) refers to an AK activity in the presence of 100 mM of L-lysine compared with an AK activity in the absence of L-lysine in the reaction solution. The heat stability (%) refers to a ratio of activity maintenance after a treatment at 55° C. for 1.5 hour.

Data set [2] relates to AKIII. In words: Heat stability of AKIII in vitro. The class given is biochemical, E. coli. Conditions: ratio of activity maintenance after treatment at 55° C. for 1.5 hour.
Source text: as §1
Subsequently, the heat stability of the mutant enzymes was examined. When it is intended that an enzyme is improved to increase its activity, it is important that a created enzyme is maintained stably in cells. […]
Judging from results of investigation on the inactivation temperature of AKIII under various conditions, the ratio of activity maintenance after a treatment at 55° C. for 90 minutes was measured. […]

B1: Wild type: wild type aspartokinase III of E. coli encoded by lysC, SEQ ID NO:8 (protein)
chain: MSEIVVSKFGGTSVADFDAMNRSADIVLSDANVRLVVLSASAGITNLLVALAEGLEPGERFEKLDAIRNIQFAILERLRYPNVIREEIERLLENITVLAEAAALATSPALTDELVSHGELMSTLLFVEILRERDVQAQWFDVRKVMRTNDRFGRAEPDIAALAELAALQLLPRLNEGLVITQGFIGSENKGRTTTLGRGGSDYTAALLAEALHASRVDIWTDVPGIYTTDPRVVSAAKRIDEIAFAEAAEMATFGAKVLHPATLLPAVRSDIPVFVGSSKDPRAGGTLVCNKTENPPLFRALALRRNQTLLTLHSLNMLHSRGFLAEVFGILARHNISVDLITTSEVSVALTLDTTGSTSTGDTLLTQSLLMELSALCRVEVEEGLALVALIGNDLSKACGVGKEVFGVLEPFNIRMICYGASSHNLCFLVPGEDAEQVVQKLHSNLFE
For the molecule B1, in the data set on AKIII [1] (AK activity in the presence of 100 mM of L-lysine compared with AK activity in the absence of L-lysine), the “Degree of desensitization of inhibition” value stood at 0%. Besides, the Specific activity in the data set with AKIII [1] (AKIII, cell-free extract of GT3 transformants, 1 U=1 μmol/min) worked out at 0.0247 U/mg protein. Moreover, the “Inhibition of AKIII by L-lysine” value in the data set with AKIII [1] (various concentrations of L-lysine, FIG. 6) is listed as “strongly suffered inhibition by L-lysine”. Further, the Heat stability in the data set with AKIII [2] was determined as 18%.
